Usually Kd stands for the constant that tells how readily two partners part at equilibrium.

Assay [1] concerns the target T1, cynomolgus monkey TL1A, soluble, CHO-expressed, residues 72-251 of SEQ ID NO:248 with N-terminal His6-tag (cynomolgus monkey (Macaca fascicularis), UniProt O95150 72-251 (human entry)).
T1 construct: also called MfTL1A; MfTL1A (CHO)
T1 chain: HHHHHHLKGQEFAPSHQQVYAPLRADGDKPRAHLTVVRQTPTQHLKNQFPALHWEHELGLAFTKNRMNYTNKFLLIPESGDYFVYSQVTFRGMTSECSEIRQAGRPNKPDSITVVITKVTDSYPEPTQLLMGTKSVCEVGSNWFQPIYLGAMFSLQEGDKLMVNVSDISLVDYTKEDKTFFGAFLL
The assay is described as follows: SPR 37C, mAb captured; kd set at 1e-6 1/s. How it is done:
(§1) Measurements were conducted on a T100 BIACORE™ instrument. […] Kinetic association (kₐ) and dissociation (kd) rate constants were determined by fitting the data to a 1:1 binding model using BIAevaluation 4.1 curve fitting software (BIAcore Life Sciences). Molar concentrations of TL1A/Fhm used in the data fitting assumed a monomeric state for TL1A in solution. Binding dissociation equilibrium constants (KD) and dissociative half-lives (t_{1/2}) were calculated from the kinetic rate constants as: KD (M)=kd/kₐ; and t_{1/2} (min)=[In2/(60*kd)].

Assay [2] deals with T2, human TL1A, soluble, CHO-expressed, residues 72-251 of SEQ ID NO:244 with N-terminal His6-tag (human, UniProt O95150 72-251).
T2 construct: also called hTL1A; hTL1A (CHO)
T2 sequence: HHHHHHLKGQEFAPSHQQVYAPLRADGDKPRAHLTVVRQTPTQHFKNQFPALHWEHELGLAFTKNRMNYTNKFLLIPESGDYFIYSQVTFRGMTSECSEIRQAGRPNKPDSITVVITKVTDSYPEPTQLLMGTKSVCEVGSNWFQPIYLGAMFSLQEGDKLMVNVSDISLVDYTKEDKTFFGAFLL
As to the kind of experiment: SPR 37C, mAb captured; kd set at 1e-6 1/s. On the procedure: as §1

Assay [3] addresses T3, full length human TL1A expressed on HEK293 cells (human, UniProt O95150 1-251).
T3 construct: also called HEK293/hTL1A; cell-surface hTL1A
T3 sequence: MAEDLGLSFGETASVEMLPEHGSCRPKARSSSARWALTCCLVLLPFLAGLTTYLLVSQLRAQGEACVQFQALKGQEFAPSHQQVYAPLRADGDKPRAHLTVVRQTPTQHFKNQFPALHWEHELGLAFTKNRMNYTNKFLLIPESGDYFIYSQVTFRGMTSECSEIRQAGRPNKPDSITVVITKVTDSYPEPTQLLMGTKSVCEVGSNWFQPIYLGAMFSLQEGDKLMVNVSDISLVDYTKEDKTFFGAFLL
As to the kind of experiment: flow, HEK293/hTL1A, mAb 0.1 ug/ml + 1 ug/ml soluble hTL1A. How it is done:
Human embryonic kidney 293 cells stably transfected to over-express cell-surface hTL1A were first stained in a flow cytometric experiment with eight anti-hTL1A antibodies at four concentrations (1, 0.1, 0.01, and 0.003 μg/ml). […] The lowest antibody concentration providing significant staining levels was then used in a competition binding experiment. A negative isotype control antibody (human IgG4) was used at 1 μg/ml to define the background signal. For the competition experiment, eight antibody samples, at the minimal concentrations identified above, were first treated with soluble hTL1A expressed from CHO cells at concentrations ranging from 0.03 μg/ml to 10 μg/ml. After pre-incubation for 30 min on ice, the antibody/hTL1A mixture was added to 293/HEK-hTL1A cells that had been isolated by centrifugation in a 96-well conical plate. After incubation for an additional 10 minutes on ice, the cells were washed. The secondary reagent, anti-h Fcγ-APC F(ab′)₂, was added to all wells at a 200-fold dilution to detect bound antibodies. Samples were incubated for 15 minutes on ice, away from light, and then washed. Cells were processed on an BD™ LSR II Flow Cytometer (BD Biosciences) to detect anti-hTL1A antibodies bound to the cell surface, and data were analyzed using FlowJo software (version 8.8.6; Tree Star Inc.). Maximum signal: Anti-hTL1A antibody binding in the absence of soluble hTL1A; Minimum signal: Signal recorded when […] of isotype control antibody was added in place of the anti-hTL1A antibody. NT: Not tested.

Assay [4] addresses T2, human TL1A, soluble, CHO-expressed, …. The assay is described as follows: cell-based or functional assay.
Assay [5] has the same target. The assay is described as follows: cell-based or functional assay. This is another data set of the same source.

B1: H4H1818N (antibody, human IgG4 S228P, V domains shown)
VH: RLQLVESGGGLVKPGGSLKLSCAASGFTISDYYMSWIRQAPGKGLEWVSYIGGSGSTIYYADSVKGRFTISRDNAKNSLYLQMNSLRAEDTAVYYCAREDADSYYYYGMDVWGQGTTVTVSS
VL: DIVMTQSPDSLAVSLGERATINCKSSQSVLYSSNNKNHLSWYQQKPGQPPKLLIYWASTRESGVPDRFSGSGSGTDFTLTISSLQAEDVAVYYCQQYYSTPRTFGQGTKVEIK
notes: human IgG4(S108P) form of H2M1818N
As to B1, in assay [1], the Kd is at most 0.000804 nM and the t1/2 was at least 192 h. Also, in assay [2], the Kd was at most 0.000925 nM and the t1/2 was at least 192 h.

B2: H4H1750P (antibody, human IgG4 S228P, V domains shown)
VH: QVQLVESGGGVVQPGRSLRLSCVASGFTFSNYGMHWVRQAPGKGLEWVAVISYDGNNDLYSDSVKGRFTISRDNAKNALSLQMTSLRAEDTAVYYCARDSTMTPYYYHGIDVWGQGTTVTVSA
VL: DIQMTQSPSSLSASVGDRVTITCRASQDIRNDLGWYQQKPGKAPKRLIYAASSLQSGVPSRFSGSGSGTDFTLTISSLQPEDFATYYCLQHNSYPPTFGQGTKVEIK
In assay [2], B2 had a dissociation constant (Kd) of at most 0.0138 nM and a t1/2 of at least 192 h.

B3: H4H1805N (antibody, human IgG4 S228P, V domains shown)
VH: QVQLQQWGAGLLKPSETLSLTCAVYGGSFTGFYWSWIRQPPGKGLEWIGEINHRGNTNYNPSLKSRVTMSVDTSKNQFSLNMISVTAADTAMYFCASPFYDFWSGSDYWGQGTLVTVSS
VL: DIMLTQTPLTSPVTLGQPASISCKSSQSLVHSDGNTYLSWLQQRPGQPPRLLFYKISNRFSGVPDRFSGSGAGTDFTLKISRVEAEDVGVYYCMQATQFPLTFGGGTKVEIK
notes: human IgG4(S108P) form of H2M1805N
As for B3, the MFI in assay [3] came to 25.1. Also, in assay [4], the “IC50, IFN-g release, average of donors” value came out at 4 nM; the “IC50, IFN-g release, donor D1” value stood at 2.4 nM; the “IC50, IFN-g release, donor D2” value came to 5.5 nM; the “IC50, IFN-g release, donor D3” value is 3.4 nM. For the same molecule, in assay [4], the “IC50, IFN-g release, donor D4” value was 2.5 nM; the “IC50, IFN-g release, donor D5” value is 2.9 nM; the “IC50, IFN-g release, donor D6” value amounted to 3.4 nM; the “IC50, IFN-g release, donor D7” value worked out at 8 nM. Moreover, in assay [4], the “IC50, IFN-g release, donor D8” value came to 5.1 nM; the “IC50, IFN-g release, donor D9” value turned out to be 5.9 nM; the “IC50, IFN-g release, donor D10” value was 2.8 nM; the “IC50, IFN-g release, donor D11” value amounted to 3 nM. In assay [4], the “IC50, IFN-g release, donor D12” value was 3.1 nM. Besides, in assay [5], the “% Blocking IFN-g, D1, 1 ug/ml mAb” value worked out at 100%; the “% Blocking IFN-g, D1, 3 ug/ml mAb” value was 100%; the “% Blocking IFN-g, D2, 1 ug/ml mAb” value is 100%; the “% Blocking IFN-g, D2, 3 ug/ml mAb” value stood at 100%. In addition, in assay [5], the “% Blocking IFN-g, D3, 1 ug/ml mAb” value came out at 90%; the “% Blocking IFN-g, D3, 3 ug/ml mAb” value amounted to 95%; the “% Blocking IFN-g, D4, 1 ug/ml mAb” value stood at 100%; the “% Blocking IFN-g, D4, 3 ug/ml mAb” value turned out to be 100%. Moreover, in assay [5], the “% Blocking IFN-g, D5, 1 ug/ml mAb” value is 100%; the “% Blocking IFN-g, D5, 3 ug/ml mAb” value is 80%; the “% Blocking IFN-g, D6, 1 ug/ml mAb” value is 100%; the “% Blocking IFN-g, D6, 3 ug/ml mAb” value worked out at 100%. In assay [5], the “% Blocking IFN-g, D7, 1 ug/ml mAb” value came out at 100%; the “% Blocking IFN-g, D7, 3 ug/ml mAb” value came to 100%; the “% Blocking IFN-g, D8, 1 ug/ml mAb” value was 100%; the “% Blocking IFN-g, D8, 3 ug/ml mAb” value came out at 100%. In assay [5], the “% Blocking IFN-g, D9, 1 ug/ml mAb” value was 90%; the “% Blocking IFN-g, D9, 3 ug/ml mAb” value worked out at 70%; the “% Blocking IFN-g, D10, 1 ug/ml mAb” value was 100%; the “% Blocking IFN-g, D10, 3 ug/ml mAb” value turned out to be 100%.

B4: H4H1804N (antibody, human IgG4 S228P, V domains shown)
VH: QVQLHQWGAGLLKPSETLSLTCAVSGVSFSDYHWAWIRQSPGKGLEWIGDINHRGRTNYNPSLKSRVTISLDTSGNPFSLKLTSVTAADTAVYYCARDFPNWVFDSWGQGILVTVSS
VL: EIVLSQSPGTLSLSPGERATLSCRASQSVSSSFLAWYQQYPGQAPRLLIYGASRRATGIPDRFRGSGSGTDFTLTISRLEPEDFAVYYCQQYGSSPLTFGGGTKVENK
notes: human IgG4(S108P) form of H2M1804N
On to B4, for which the MFI in assay [3] is 33.7. In assay [4], the “IC50, IFN-g release, average of donors” value was 8.8 nM; the “IC50, IFN-g release, donor D1” value came to 6.8 nM; the “IC50, IFN-g release, donor D2” value stood at 8.6 nM; the “IC50, IFN-g release, donor D3” value came to 8.6 nM. In assay [4], the “IC50, IFN-g release, donor D4” value worked out at 7.7 nM; the “IC50, IFN-g release, donor D5” value is 6.7 nM; the “IC50, IFN-g release, donor D6” value worked out at 8.6 nM; the “IC50, IFN-g release, donor D7” value is 12 nM. In assay [4], the “IC50, IFN-g release, donor D8” value turned out to be 11 nM; the “IC50, IFN-g release, donor D9” value worked out at 8.1 nM; the “IC50, IFN-g release, donor D10” value came out at 12 nM; the “IC50, IFN-g release, donor D11” value is 7.6 nM. In addition, the “IC50, IFN-g release, donor D12” value in assay [4] stood at 7.5 nM. In addition, in assay [5], the “% Blocking IFN-g, D1, 1 ug/ml mAb” value came out at 95%; the “% Blocking IFN-g, D1, 3 ug/ml mAb” value was 100%; the “% Blocking IFN-g, D2, 1 ug/ml mAb” value worked out at 100%; the “% Blocking IFN-g, D2, 3 ug/ml mAb” value was found to be 100%. In assay [5], the “% Blocking IFN-g, D3, 1 ug/ml mAb” value stood at 80%; the “% Blocking IFN-g, D3, 3 ug/ml mAb” value is 95%; the “% Blocking IFN-g, D4, 1 ug/ml mAb” value came to 90%; the “% Blocking IFN-g, D4, 3 ug/ml mAb” value was determined as 100%. Besides, in assay [5], the “% Blocking IFN-g, D5, 1 ug/ml mAb” value was 100%; the “% Blocking IFN-g, D5, 3 ug/ml mAb” value was found to be 100%; the “% Blocking IFN-g, D6, 1 ug/ml mAb” value is 50%; the “% Blocking IFN-g, D6, 3 ug/ml mAb” value stood at 100%. Moreover, in assay [5], the “% Blocking IFN-g, D7, 1 ug/ml mAb” value is 10%; the “% Blocking IFN-g, D7, 3 ug/ml mAb” value stood at 100%; the “% Blocking IFN-g, D8, 1 ug/ml mAb” value was found to be 100%; the “% Blocking IFN-g, D8, 3 ug/ml mAb” value is 100%. In assay [5], the “% Blocking IFN-g, D9, 1 ug/ml mAb” value came to 50%; the “% Blocking IFN-g, D9, 3 ug/ml mAb” value stood at 100%; the “% Blocking IFN-g, D10, 1 ug/ml mAb” value came out at 0%; the “% Blocking IFN-g, D10, 3 ug/ml mAb” value is 80%.

Values taken from US20140120109A1 (Regeneron, published 2014).
